Results on 167 variants are retold here after the RNAGym collection of RNA variant scans (doi:10.7554/elife.80360).

The chains are these.
B1: Hairpin Ribozyme (parent)
chain: GUCCUCUUUCACGUGCGCGUGAAAGAGAGAAGUGAACCAGAGAAACACACGUUGUGGUAUAUUACCUGGUA

Variants of B1 are the subject of this data set. The data set can be described thus: self-cleavage, relative activity (ratio to wild type); higher = more cleavage; co-transcriptional.
With C46A G56A, the self-cleavage came to 0.167.

Take A41C A64U: the self-cleavage was 0.267. For C18U G68U, the self-cleavage is 0.307. Take C3U U53C: the self-cleavage turned out to be 0.672. In the case of A41G U67G, the self-cleavage amounted to 0.5. Under G34C A39G stands 1.03; under U7A U53A, 0.879; under U2A G29A, 0.0918. Under C48G A59U stands 0.0386; under C48A G54U, 0.176; under C18U U58G, 0.991. C10A C65A: the self-cleavage came to 0.556.

As for A43C G54U, the self-cleavage came to 0.241. Regarding A23C G56A, the self-cleavage amounted to 0.187.

As to C37A U63G, the self-cleavage stood at 0.131. Under G17A C18G stands 1.15. For A39C A47C, the self-cleavage amounted to 0.207. Turning to A31U U52C, the self-cleavage was 0.116.

For the variant G51C U60G, the self-cleavage came to 0.62. For the variant U8C A61U, the self-cleavage was 0.182. With A30C A61U, the self-cleavage stood at 0.097. On to C12G A45U, for which the self-cleavage amounted to 0.116. As to C10U A64U, the self-cleavage was 0.134. Consider C48G G57A, for which the self-cleavage was determined as 0.151.

For C4A U60G, the self-cleavage worked out at 0.139.

Regarding A31U U70G, the self-cleavage came out at 0.27. In the case of G40C A61G, the self-cleavage was 0.0698. Turning to U9C A71C, the self-cleavage was found to be 1.24.

As to U14A A64G, the self-cleavage stood at 0.589. U9G G19U: the self-cleavage turned out to be 0.546. For U9A G57A, the self-cleavage amounted to 0.141.

In the case of A41C G51U, the self-cleavage stood at 1.48. Turning to G56C U62A, the self-cleavage came out at 0.263. Take U7C U9A: the self-cleavage worked out at 0.607. For A24C A35G, the self-cleavage was 0.864. Under A59G U60C stands 0.238. Turning to G21U C66U, the self-cleavage is 0.427. With C12A U63G, the self-cleavage came out at 0.213. Under G21C U63A stands 0.0855; under C16A A39G, 0.243; under U5A U52C, 0.274. For G27A A64G, the self-cleavage is 0.303.

Turning to U60C G69C, the self-cleavage came to 0.326. For G1C A30C, the self-cleavage is 0.207. For A31C G32A, the self-cleavage is 0.173. The result for C18A A43U reads 0.196. Consider G51U A71G, for which the self-cleavage amounted to 1.24. Turning to U5C C48U, the self-cleavage was found to be 0.0847.

In the case of A49G U53C, the self-cleavage was found to be 0.363. With G27C A36U, the self-cleavage was found to be 0.128.

For G17C A41C, the self-cleavage was 0.983. For the variant U53G U62C, the self-cleavage is 0.281. As to A35C C38G, the self-cleavage stood at 0.112.

As for A23G U33C, the self-cleavage stood at 0.0496. For the variant G13U A64C, the self-cleavage is 0.267. For the variant G15C U60G, the self-cleavage was determined as 0.466. For C18A A71U, the self-cleavage was found to be 0.831. Regarding G51U U70C, the self-cleavage came to 1.01.

A47C C50G: the self-cleavage came out at 0.0249. Turning to U5C U8A, the self-cleavage worked out at 0.197. Turning to G42C U58A, the self-cleavage amounted to 0.218. On to A11C A23G, for which the self-cleavage was found to be 0.642. Turning to C12U U55C, the self-cleavage was 0.218. Consider G13A U62C, for which the self-cleavage was 0.242.

A11G G34C: the self-cleavage stood at 1.3. The result for U67G A71G reads 0.208. Consider G21A C66G, for which the self-cleavage worked out at 0.156. Regarding C6U C48U, the self-cleavage amounted to 0.227. Consider A11G C37A, for which the self-cleavage came out at 0.149. Consider G21U A39U, for which the self-cleavage is 0.293. Regarding A26U A41G, the self-cleavage turned out to be 0.841. In the case of C38G G54U, the self-cleavage came to 0.0948.

In the case of C16U A26U, the self-cleavage was determined as 0.817.

As for C12A G56U, the self-cleavage was found to be 0.159. As for G13C A44C, the self-cleavage stood at 0.281. The result for G13C A44U reads 0.137.

For the variant G1A G68A, the self-cleavage came out at 0.21. As to C3U A39U, the self-cleavage was found to be 0.253. Regarding C3U A39G, the self-cleavage came to 0.122. With A30G G51A, the self-cleavage is 0.254. With G13A A28U, the self-cleavage is 0.495.

Consider A39G U58C, for which the self-cleavage was determined as 0.272. In the case of A31C C66A, the self-cleavage was found to be 0.146.

As to A22G G32C, the self-cleavage stood at 0.0859. As for U20A A22U, the self-cleavage amounted to 0.849. As for U33C A39C, the self-cleavage came to 0.171. Turning to U8C G17C, the self-cleavage was 0.404.

For the variant A43C C66G, the self-cleavage is 0.0604.

With C3A C6G, the self-cleavage was 0.455. On to U55C G57C, for which the self-cleavage stood at 0.12. Consider C10G A41U, for which the self-cleavage was 1.09. Regarding U33G A64C, the self-cleavage stood at 0.0723.

Consider G42C U53A, for which the self-cleavage came out at 0.332.

As to C6A U53A, the self-cleavage is 0.456. As for A36C G57A, the self-cleavage was determined as 0.125. Under C16U G69U stands 0.267; under G17A C65U, 0.31. On to G21C A44G, for which the self-cleavage was found to be 0.194. Under A41C U63A stands 0.108; under A24C C37U, 0.455. The result for G57C A64C reads 0.178; that for C4A C48U, 0.15; that for G34A C65A, 1.26.

Turning to C3G G19C, the self-cleavage was 0.229. Turning to U2C A28U, the self-cleavage turned out to be 0.0802. In the case of U62A G69A, the self-cleavage stood at 0.176. On to C37A G68C, for which the self-cleavage was determined as 0.254.

As to G42U C65U, the self-cleavage was found to be 0.12. On to A11G U60G, for which the self-cleavage worked out at 0.565. Under G25C G57A stands 0.176; under G25U U52C, 0.626; under U5G G69C, 0.104.

G27U U67G: the self-cleavage was 0.111.

As for C10U A23C, the self-cleavage was 0.637. Under G51U U58G stands 0.797.

In the case of G25A A31G, the self-cleavage amounted to 0.127. As to C6A C66A, the self-cleavage is 0.198. As for A11G G15A, the self-cleavage is 0.896. As for U8G A22G, the self-cleavage was found to be 0.676. The result for C46U A59C reads 0.32; that for U52C G57C, 0.123; that for U8A A61G, 0.0847. A41C A61U: the self-cleavage stood at 0.234. The result for C4G A45G reads 0.274; that for A35U A39C, 0.208. The result for G34A A41G reads 1.3. Consider A28C U33A, for which the self-cleavage came to 0.145. A59G U62C: the self-cleavage was determined as 0.201. With U5G U62G, the self-cleavage came out at 0.145. For A11U C46U, the self-cleavage was determined as 0.0973. G15A U53A: the self-cleavage was 0.862.

Turning to U20C G42A, the self-cleavage came to 0.19. In the case of G40C C66U, the self-cleavage amounted to 0.184. For A36U G42U, the self-cleavage amounted to 0.173. C4A G27A: the self-cleavage stood at 0.285. Take G19C U52A: the self-cleavage is 0.957.

Turning to G21A U60A, the self-cleavage was found to be 0.804. Take A24C A47C: the self-cleavage was 0.272.

In the case of C46A C65G, the self-cleavage came to 0.146. With A39G C65U, the self-cleavage was found to be 0.263. Turning to U7G A44C, the self-cleavage worked out at 0.195. Under G32A G42A stands 0.0757; under U9A A41C, 0.783. The result for G17U G32A reads 0.122; that for A44C A61G, 0.115. Turning to A11U A39C, the self-cleavage is 0.495. Consider G19U C48G, for which the self-cleavage was determined as 0.2. For the variant C4A C12A, the self-cleavage is 0.187.

With A39C A49U, the self-cleavage is 0.12. As for A36C U53C, the self-cleavage was found to be 0.953. Consider G40A C65A, for which the self-cleavage is 0.315.

Consider C6A G19C, for which the self-cleavage worked out at 0.55. The result for A23C C50A reads 0.318; that for G27C U33A, 0.0754; that for A49G G54U, 0.541. On to C10A A49U, for which the self-cleavage was determined as 0.172. In the case of C4U A64G, the self-cleavage came out at 0.25. With C6U G56U, the self-cleavage worked out at 0.144. Under C37G A39U stands 0.0635.

Consider U9C C65A, for which the self-cleavage was 0.945. As to U2G C4G, the self-cleavage came out at 0.165. Regarding A23U A47C, the self-cleavage came out at 0.386. For A23C C37A, the self-cleavage is 0.18. As for A49C G54U, the self-cleavage is 0.216. A47U U52A: the self-cleavage was found to be 0.148.

In the case of U8A C37A, the self-cleavage was determined as 0.288. For the variant G1A C37G, the self-cleavage is 0.187.
